Measurements: US20250243471A1

Legend:
[1] = molecular target: PhiV-1 gp8 portal protein (coliphage PhiV-1); assay: cell-based or functional assay
[2] = molecular target: PhiV-1 gp19 large terminase subunit (coliphage PhiV-1); assay: cell-based or functional assay
[3] = molecular target: PhiV-1 gp19 large terminase subunit (coliphage PhiV-1); assay: cryo-EM structure of the SeAvs3-terminase complex
[4] = molecular target: SeAvs3 from Salmonella enterica NCTC13175 with C-terminal 6xHis tag (purified recombinant) (Salmonella enterica NCTC13175); assay: cryo-EM; interface between adjacent STAND ATPase domains in the terminase-bound SeAvs3 tetramer
[5] = molecular target: PhiV-1 gp19 terminase with StrepTag (gp19-StrepTag) (coliphage PhiV-1); assay: tandem affinity purification (Ni-NTA, Strep-Tactin), Superose 6 Increase peak, SDS-PAGE band intensity
[6] = molecular target: PhiV-1 gp8 portal protein (coliphage PhiV-1); assay: cryo-EM structure of the EcAvs4-portal complex
[7] = molecular target: EcAvs4 Q63A/K65A with internal TwinStrep tag between residues 114 and 115 (cryo-EM construct) (Escherichia coli NCTC11132); assay: cryo-EM; interface between adjacent STAND ATPase domains in the portal-bound EcAvs4 tetramer

## SeAvs3 from Salmonella enterica NCTC13175 expressed in E. coli (genetic assays) (receptor)
[1]
  Abundance relative to E. coli NovaBlue control (PhiV-1 fragment screen, deep sequencing of surviving plasmids): 0.65
[2]
  Abundance relative to E. coli NovaBlue control (PhiV-1 fragment screen, deep sequencing of surviving plasmids): < 0.0001

## EcAvs4 from Escherichia coli NCTC11132 expressed in E. coli (genetic assays) (receptor)
[1]
  Abundance relative to E. coli NovaBlue control (PhiV-1 fragment screen, deep sequencing of surviving plasmids): < 0.0001
[2]
  Abundance relative to E. coli NovaBlue control (PhiV-1 fragment screen, deep sequencing of surviving plasmids): 0.11

## SeAvs3 from Salmonella enterica NCTC13175 with C-terminal 6xHis tag (purified recombinant) (receptor)
[3]
  buried solvent-accessible surface area: > 3700 Å2
[4]
  buried surface area: 436 Å^2
[5]
  ratio of SeAvs3 and gp19 in the complex peak (SeAvs3:gp19 ratio): 1

## EcAvs4 Q63A/K65A with internal TwinStrep tag between residues 114 and 115 (cryo-EM construct) (receptor)
[6]
  buried solvent-accessible surface area: 5800 Å2
[7]
  buried surface area: 1230 Å^2
